Literature values in PMC6832444.

Biological target: PD-L2 (Homo sapiens) (UniProt Q9BQ51)
Sequence of UniProt Q9BQ51 (Q9BQ51 20-220): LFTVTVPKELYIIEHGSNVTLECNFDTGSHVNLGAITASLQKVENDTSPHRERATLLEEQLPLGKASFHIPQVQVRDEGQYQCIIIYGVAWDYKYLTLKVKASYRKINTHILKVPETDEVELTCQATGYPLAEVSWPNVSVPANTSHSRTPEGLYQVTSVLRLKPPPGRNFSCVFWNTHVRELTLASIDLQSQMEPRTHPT

Kd: 140 nM
Substance: PD-1 (from UniProt Q15116)
